# Laboratory results reported in patent US11065317B2, “Heat shock protein-binding peptide compositions and methods of use thereof” (Agenus Inc., priority 2018, dated 2021).
# Legend:
# [1] = target: T1, Recombinant human Hsc70 (rhHsc70) (Homo sapiens, UniProt P11142); assay: Complexation of rhHsc70 with PEP006 or a PEP006-containing polypeptide, size exclusion HPLC chromatogram; assay type: binding
# T1 construct: made in house; host or cells: E. coli
# Procedure: Briefly, PEP006 peptide was reconstituted in water for injection (WFI) to a concentration of 645 μM. Recombinant human Hsc70 (rhHsc70) was diluted at a concentration of 1.66 mg/mL. Both solutions were pre-warmed in a 37° C. incubator for 10 minutes, and were combined and incubated at 37° C. for 60 minutes. The final concentration of rhHsc70 was 1 mg/mL (about 14.1 μM), and the molar ratio of PEP006 to rhHsc70 was 0.25:1, 0.5:1, 1:1, 1.5:1, 2:1, 2.5:1, and 3:1. A negative control containing only rhHsc70 at 1 mg/mL was also prepared.
# A quantity of 10 μg of each sample was injected neat in triplicate for resolution by size exclusion HPLC (Alliance HPLC, Waters Model #2695 Separations Module; Dual Wavelength UV Detector, Waters Model 2487) using a chromatography column TSKgel SuperSW3000 (Tosoh Bioscience, Catalog #18675). […] UV absorbance of PEP006 peptide and rhHsc70 protein was measured at the wavelengths of 214 nm and 280 nm. The absorbance data was processed by Waters Empower (V2) software. […]
# FIG. 3B is a graph showing percent complexation of a polypeptide comprising PEP006 with HSC70 over a range of polypeptide:Hsc70 molar ratios from 0.125:1 to 4:1, as calculated from size exclusion chromatography traces similar to those in FIG. 3A, using the methods described Example 6.1.1. […]
# human Hsc70 = target: T2, human Hsc70 (Homo sapiens, UniProt P11142); assay: Percent complexation of peptides with Hsc70 by size exclusion chromatography; assay type: binding; settings: 60 minutes at 30° C., SEC, 214 nm; for Percent complexation of peptides with Hsc70, 0.25:1: peptide:Hsc70 molar ratio 0.25:1; for Percent complexation of peptides with Hsc70, 0.5:1: peptide:Hsc70 molar ratio 0.5:1; for Percent complexation of peptides with Hsc70, 1:1: peptide:Hsc70 molar ratio 1:1; for Percent complexation of peptides with Hsc70, 2:1: peptide:Hsc70 molar ratio 2:1; for Percent complexation of peptides with Hsc70, 4:1: peptide:Hsc70 molar ratio 4:1
# T2 construct: made in house; host or cells: E. coli
# T2 sequence (P11142 whole entry): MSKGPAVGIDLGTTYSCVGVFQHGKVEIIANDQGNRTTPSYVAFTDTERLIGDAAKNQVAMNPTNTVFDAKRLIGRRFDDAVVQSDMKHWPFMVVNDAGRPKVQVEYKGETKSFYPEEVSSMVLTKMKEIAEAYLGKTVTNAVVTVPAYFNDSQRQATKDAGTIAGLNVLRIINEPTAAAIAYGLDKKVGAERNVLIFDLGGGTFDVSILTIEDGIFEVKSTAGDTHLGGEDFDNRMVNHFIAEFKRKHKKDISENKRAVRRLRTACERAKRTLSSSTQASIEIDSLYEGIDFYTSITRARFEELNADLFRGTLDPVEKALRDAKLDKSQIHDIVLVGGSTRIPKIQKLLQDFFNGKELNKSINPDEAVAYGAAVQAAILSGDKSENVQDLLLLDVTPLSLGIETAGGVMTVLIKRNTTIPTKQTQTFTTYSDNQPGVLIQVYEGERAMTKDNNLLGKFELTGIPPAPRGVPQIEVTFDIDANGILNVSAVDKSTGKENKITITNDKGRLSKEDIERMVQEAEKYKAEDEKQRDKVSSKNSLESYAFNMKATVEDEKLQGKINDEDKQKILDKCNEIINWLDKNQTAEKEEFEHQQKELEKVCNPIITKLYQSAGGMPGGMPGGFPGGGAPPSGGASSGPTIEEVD
# Procedure: In a separate experiment, further variants of the peptide NLLRLTG (SEQ ID NO: 70) were generated and the ability of these peptides to form a peptide-Hsc70 complex was analyzed. Peptides were again synthesized using standard Fmoc solid-phase chemical synthesis, as described above. Individual peptides were solubilized in pH adjusted water at a concentration of 250 μM, and spiked with polysorbate 20 to a final concentration of 0.1%. To form a peptide-Hsc70 complex, Hsc70 (1 mg/ml, 0.1% polysorbate) was mixed with peptide at peptide:Hsc70 molar ratios of, 0.25:1, 0.5:1, 1:1, 2:1, and 4:1, for 60 minutes at 30° C. Following incubation, samples were cooled for 5 minutes at room temperature and transferred to HPLC vials for analysis. To evaluate the quantity of the complex in the solution, 20 μl (10 μg) of the sample was loaded on a size exclusion chromatography column TSKgel SuperSW3000 (Tosoh Bioscience) at a flow rate of 0.2 ml/min with 1×PBS as a running buffer. The data was collected by measuring the absorbance at 214 nm.
# The percent of Hsc70 bound to peptide was calculated by SEC. As shown in the SEC chromatogram depicted in FIG. 1, recombinant human heat shock cognate 71 kDa protein (Hsc70) appeared as monomer (M), dimer (D), trimer (T), and higher order high molecular weight (HMW) oligomeric species when subjected to SEC chromatography. Resolution and evaluation of the extent to which peptide-Hsc70 complex was formed with a given peptide or peptide mixture was complicated by the close elution of a complex of Hsc70 monomer with peptide (Msh). The peaks corresponding to monomer and complex overlap and were not fully resolved by conventional SEC media. In order to more accurately calculate the extent of complex formation, the following data analytical method was used. […] Peak area integrations of these protein species were well resolved from the complex and monomer. Further, the extent to which complex was formed appeared to be […] to the extent to which trimer and dimer were recruited to complex formation. Because of this observation, changes in trimer and dimer reflected the extent to which monomer was recruited to the formation of complex. Thus, the progression of changes in the level of trimer and dimer was used to calculate expected changes in the peak areas of overlapping complex and monomer species, and these calculated peak areas were used to calculate net formation of complex.
# Terms used for various chromatographic fractions include: High Molecular Weight (HMW), Trimer and other mid-order oligomer (T), Dimer (D), Complex (C), Monomer shoulder (Msh), and Monomer (M) (see FIG. 1). Peak areas of the various fractions were extracted from SEC data and the percentage of peptide-Hsc70 complex formation was calculated using the following set of equations: % Complex=(AREAcomplex/AREATotal)×100 AREAcomplex=AREATotal−(AreaT+D+AreaMshx+AreaMx) AREATotal=AREAT+D,C,Msh,M+(AREAHDw-x−AREAHDW-0) AREAMshx=AREAMsh0×(AREA(T+D)x)/(AREA(T+D)0) AREAMx=AREAM0×(AREA(T+D)x)/(AREA(T+D)0)
# AREATotal is the sum of total integrated peak areas from trimer/oligomer region through the monomer peak and excludes the initial HMW peak area but includes the excess increase of the HMW peak area that was observed when peptide was added. The HMW peak was excluded from the complexation calculation on the basis that it was aggregated protein that was not functional for complexation. This correction took into account AreaTotal factors in the minor increase in HMW area, adding it back to base total area used to calculate area of complex.
# The foregoing method was applied to the SEC chromatogram for each complexation reaction by applying vertical lines to the chromatogram to produce HMW, T, C, D, and M segments (as shown in FIG. 1), calculating the area under the curve for of each of the indicated HMW, T, C, D, and M segments, and inputting the values into the equations described above.
# T1 sequence (P11142 whole entry): as above
Sequence,"column retention time of complexation products when rhHsc70 bound ([1]; polypeptide:Hsc70 molar ratios 0.125:1 to 4:1, FIG. 3A)","Percent complexation of peptides with Hsc70, 0.25:1 (human Hsc70)","Percent complexation of peptides with Hsc70, 0.5:1 (human Hsc70)","Percent complexation of peptides with Hsc70, 1:1 (human Hsc70)","Percent complexation of peptides with Hsc70, 2:1 (human Hsc70)","Percent complexation of peptides with Hsc70, 4:1 (human Hsc70)","column retention time of complexation products when rhHsc70 bound ([1]; PEP006:rhHsc70 molar ratios 0.25:1 to 3:1, 37° C. 60 minutes, FIG. 2)"
LGVVRPRALHRELDLVDDSPTPGSPGSFFRKNWLRLTW [polypeptide comprising PEP006],column retention time became shorter,,,,,,
FFRKNWIRITW [PEP013],,25.6%,48.3%,69.6%,81.9%,87.7%,
FFRKNRLLLTG [PEP002],,19.2%,32.0%,48.7%,64.8%,78.8%,
FFRKNWLRLFW [PEP010],,19.1%,42.2%,64.9%,79.3%,86.5%,
FFRKNWLKLTW [PEP012],,29.9%,58.2%,79.2%,86.2%,89.5%,
FFRKNWLRLTW [PEP006],,25.4%,53.4%,81.5%,88.3%,91.8%,column retention time became shorter
FFRKNWLLLTW [PEP003],,26.8%,45.6%,67.2%,81.3%,87.6%,
FFRKNLLRLTW [PEP155],,22.5%,48.1%,75.6%,82.9%,86.6%,
FFRKNWLKLKW [PEP055],,24.1%,52.2%,75.9%,83.7%,86.3%,
FFRKNLLRWTG [PEP004],,15.4%,29.0%,46.8%,62.5%,75.3%,
